In patent US20020051988A1 (TRUSTEES OF BOSTON UNIVERSITY, published 2002):
Blank lines part the entries; values can stand above or below the molecule they belong to. Where no end group is shown, it is not given here.

Assays:
[1] = target: p75 nerve growth factor receptor (p75^NTR) overexpressed on permanently transfected NIH 3T3 fibroblasts (Homo sapiens (Human)) (UniProt P08138); test: competition with ^125I β-amyloid 1-40 on p75^NTR-NIH 3T3 cells, 2 h at 4 C, NGF 0-100 ng/ml; value at 100 ng/ml NGF
[2] = target: p75 nerve growth factor receptor (p75^NTR) overexpressed on permanently transfected NIH 3T3 fibroblasts (Homo sapiens (Human)) (UniProt P08138); test: cell-based or functional assay
[3] = target: p75 nerve growth factor receptor (p75^NTR) on cultured normal human melanocytes (human) (UniProt P08138); test: cell-based or functional assay
[4] = target: T1, p75 nerve growth factor receptor (p75^NTR) overexpressed on permanently transfected NIH 3T3 fibroblasts (Homo sapiens (Human), UniProt P08138 29-427); test: displacement of ^125I β-amyloid 1-40 from p75^NTR 3T3 cells, 4 h at 4 C, peptide 0-400 nM
T1 construct: also called 75 kD neurotrophin receptor
T1 sequence: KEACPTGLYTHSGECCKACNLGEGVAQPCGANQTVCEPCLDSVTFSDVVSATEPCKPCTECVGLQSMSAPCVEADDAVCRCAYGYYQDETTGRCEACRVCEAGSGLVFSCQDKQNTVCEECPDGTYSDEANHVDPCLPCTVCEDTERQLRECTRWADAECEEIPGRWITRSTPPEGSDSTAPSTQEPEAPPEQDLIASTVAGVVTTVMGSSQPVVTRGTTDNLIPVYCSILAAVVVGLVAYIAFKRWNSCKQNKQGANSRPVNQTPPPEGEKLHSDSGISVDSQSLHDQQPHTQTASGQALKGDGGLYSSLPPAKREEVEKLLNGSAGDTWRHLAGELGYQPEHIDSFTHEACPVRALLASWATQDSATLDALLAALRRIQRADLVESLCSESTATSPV

decrease in cell yield [2]: 60% | Bax induction [3]: 3 fold | Bax level as compared to the 40-1 peptide [3]: 270% | decrease in cell yield [3]: 59% | decrease in melanocyte yield [3]: > 50%
Molecule: β-amyloid 1-40 peptide (from UniProt P05067 1-40)

IC50 [4]: 25 nM
B1: cyclic peptide CVGSNKGAIC (SEQ ID NO: 4) (peptide)
peptide: CVGSNKGAIC
modifications: also: cyclic peptide, ring closure not given here
notes: also called cyclic decapeptide; cold peptide

Continued, molecule first:

Molecule: Nerve growth factor (NGF) (ligand)
maximum % inhibition of ^125I labeled β-amyloid binding [1]: 38%

Molecule: β-amyloid 25-35 peptide (from UniProt P05067 696-706)
Bax induction [3]: 3 fold | Bax level as compared to the 40-1 peptide [3]: 160%
